Consider one molecule from patent publication EP4248993A1 (Charité - Universitätsmedizin Berlin, dated 2023).

For the experiment, the target named is MERS-CoV RBD Twin-Strep His (wild type, G372-L588) (MERS-CoV). Nature of the experiment: serum pull-down with RBD-TwinStrep on streptavidin magnetic beads.

B1: circulating mouse DPP4 (from serum) (receptor)
chain: SRRTYSLADYLKSTFRVKSYSLWWVSDFEYLYKQENNILLLNAEHGNSSIFLENSTFESFGYHSVSPDRLFVLLEYNYVKQWRHSYTASYNIYDVNKRQLITEEKIPNNTQWITWSPEGHKLAYVWKNDIYVKVEPHLPSHRITSTGEENVIYNGITDWVYEEEVFGAYSALWWSPNNTFLAYAQFNDTGVPLIEYSFYSDESLQYPKTVWIPYPKAGAVNPTVKFFIVNIDSLSSSSSAAPIQIPAPASVARGDHYLCDVVWATEERISLQWLRRIQNYSVMAICDYDKINLTWNCPSEQQHVEMSTTGWVGRFRPAEPHFTSDGSSFYKIISDKDGYKHICHFPKDKKDCTFITKGAWEVISIEALTSDYLYYISNQYKEMPGGRNLYKIQLTDHTNVKCLSCDLNPERCQYYAVSFSKEAKYYQLGCWGPGLPLYTLHRSTDHKELRVLEDNSALDRMLQDVQMPSKKLDFIVLNETRFWYQMILPPHFDKSKKYPLLLDVYAGPCSQKADASFRLNWATYLASTENIIVASFDGRGSGYQGDKIMHAINRRLGTLEVEDQIEAARQFVKMGFVDSKRVAIWGWSYGGYVTSMVLGSGSGVFKCGIAVAPVSRWEYYDSVYTERYMGLPIPEDNLDHYRNSTVMSRAEHFKQVEYLLIHGTADDNVHFQQSAQISKALVDAGVDFQAMWYTDEDHGIASSTAHQHIYSHMSHFLQQCFSLH
Consider B1, for which the binding result is reported as “no binding”.
